Laboratory results taken from patent US12697366B2, “Thermogenic compositions and methods” (Ohio State Innovation Foundation, priority 2016, dated 2026).

What was measured:
3T3-L1 preadipocytes = test: FD-glucose uptake in 3T3-L1 preadipocytes; format: cell-based, mouse; conditions: mouse recombinant IGFBP4; human insulin 10 μg/mL; 90 min
Method: Non-differentiated, 90% confluent 3T3-L1 cells were starved with glucose-deprived medium for 40 min. Then cells were treated in the presence and absence of different concentrations of nanoscaffold #2 and bovine insulin (200 μg/mL), all of reagents dissolved in the same glucose-deprived medium but containing fluorescent-D (FD)-glucose for 80 min. Thereafter, the FD glucose uptake was measured according to manufacturer's instructions (Cayman Chemical, USA, cat #600471). […] Non-differentiated, 90% confluent 3T3-L1 cells treated in the presence and absence of different concentrations of nanoscaffold #2 and bovine insulin (10 μg/mL) or mouse epiregulin (EREG, 0.05 μg/mL) and incubated for 24 h. Then cells were starved with glucose-deprived medium for 40 min and, then incubated with fluorescent-D (FD)-glucose for 80 min. Thereafter, the FD glucose uptake was measured according to manufacturer's instructions (Cayman Chemical, USA, cat #600471). Data are shown as percent of uptake in the presence of insulin (100%).
Non-differentiated, 90% confluent 3T3-L1 cells treated in the presence of bovine insulin (10 μg/mL), mouse epiregulin (EREG, 0.05 μg/mL), or their combinations and incubated for 24 h. Then cells were starved with glucose-deprived medium for 40 min and, then incubated with fluorescent-D (FD)-glucose for 80 min. Thereafter, the FD glucose uptake was measured according to manufacturer's instructions (Cayman Chemical, USA, cat #600471).
Non-differentiated, 90% confluent 3T3-L1 cells were starved with glucose-deprived medium for 50 min. Then cells were treated in the presence and absence of different concentrations of mouse recombinant IGFBP4 with and without nanoscaffold #2 and human insulin (10 μg/mL). All of reagents were dissolved in the same glucose-deprived medium but containing fluorescent-D (FD)-glucose for 90 min. Thereafter, the FD glucose uptake was measured according to manufacturer's instructions (Cayman Chemical, USA, cat #600471).
Glucose uptake assay was performed using glucose uptake cell-based assay kit (Cayman Chemical, Ann Arbor, MI). 3T3-L1 or human preadipocytes were cultured at a density of 5×10^4 per well into a 96-well plate (n=7) in high glucose media and grown overnight. Old cell culture medium was removed the next day and washed with PBS to remove residual glucose. Supplied 2-deoxy-2-[(7-nitro-2,1,3-benzoxadiazol-4-yl)amino]-D-glucose) (2-NBDG) was diluted to 150 μg/mL in DMEM medium without glucose, phenol red, L-glutamine, sodium pyruvate, and HEPES (Life technologies, Grand Island, New York). 100 μL of 2-NBDG glucose free medium with or without recombinant EREG and other treatments was added to the plated cells. After incubating at 37° C. for 30 minutes, cells were washed gently two times with 200 μL of glucose assay buffer. 100 μL of the assay buffer was added to each well and measured for fluorescence at an excitation/emission of 485/535 nm.
Fluorescence glucose uptake (FD-glucose assay) was performed as described PMID: 32065973, using insulin, 1.7 μM and different AACs at concentration 0.1 μM.
FD-glucose uptake in mouse 3T3-L1 preadipocytes (n=8 per treatment) treated with vehicle (Veh; PBS, open bar) or hINS (1.7 μM), mouse leptin (mLep; 12.5 nM, hatched bar), or AAC2 (0.1 μM black bar) in the presence and absence of GLUT1 inhibitor (BAY-876; 10 nM in DMSO). Cells were pre-treated with or without BAY-876 for 40 min and then FD glucose and treatment reagents were added for additional 80 min of incubation. Data (%) was normalized to FD-glucose uptake in control (Veh) 3T3-L1 cells without inhibitor (100%). Student's independent t-test.

ob/ob mice = test: AAC2, IGFBP4 and AAC2-IGFBP4 treatment of ob/ob mice; format: in vivo, mouse; conditions: ELISA, end of study
Method: A study was performed in ob/ob mouse model of obesity, insulin resistance, and type 2 diabetes. Treatment groups (n=5) included vehicle (non-treated control), AAC2 nanofiber alone, IGFBP4 peptide alone, and AAC2-IGFBP4 peptide bound to nanofiber. 5-week old male Lep^ob mice (ob/ob mice, Jackson #000632-B6.Cg-Lepob/J, Homozygous for Lepob) were randomized into four groups (n=5/group). After 1 week assimilation period, mice were injected (10 μl/g body weight (BW)) into scapular region every 48 h for 4 weeks with: • Group 1: PBS vehicle control, • Group 2: 1 nmol AAC2/g BW, • Group 3: 0.0187 nmol human insulin-like growth factor binding protein 4 (hIGFBP4, Peprotech #350-05B), or • Group 4: AAC2/hIGFBP4 combination (1 nmol AAC2 and 0.0187 nmol hIGFBP4/g BW were assembled into complex prior to injection)

B1: IGFBP4: recombinant insulin-like growth factor binding protein 4 (protein)
chain: DEAIHCPPCSEEKLARCRPPVGCEELVREPGCGCCATCALGLGMPCGVYTPRCGSGLRCYPPRGVEKPLHTLMHGQGVCMELAEIEAIQESLQPSDKDEGDHPNNSFSPCSAHDRRCLQKHFAKIRDRSTSGGKMKVNGAPREDARPVPQGSCQSELHRALERLAASQSRTHEDLYIIPIPNCDRNGNFHPKQCHPALDGQRGKCWCVDRKTGVKLPGGLEPKGELDCHQLADSFRE
3T3-L1 preadipocytes
  glucose uptake, concentration compared with insulin: improves glucose uptake at 100 lower concentration than insulin
ob/ob mice
  hyperinsulinemia (insulin levels in the blood): reduction
